Data published in paper PMC3107930.

Molecular target: motavizumab Fab
Experiment: SPR

## RSV F peptide (motavizumab epitope peptide)
  Kd: 241 nM
